One assay concerns CD4 T cells. The assay can be described thus: T cell proliferation assay in presence of added ATP, CD4 T cells. The format is cell-based, human. On the procedure:
Peripheral blood from healthy donors was obtained from EFS, and mononuclear cells were isolated on a Ficoll gradient. Lymphocytes were further enriched on a 52% Percoll gradient by collection of the cell pellets and stained with a Cell Trace dye (Thermofisher) following the TDS provided by the manufacturer. […] Inhibition of T cell proliferation was achieved by addition of ATP (200 μM). T cell proliferation and ability of Abs to block immune suppressive effect of AMP were assessed by flow cytometry by quantifying the dye dilution in the proliferating T cell subset.
Percentage of proliferating T cells vs. anti-CD73 Ab concentration is plotted in graphs using GraphPad Prism software.

Assay [1] concerns the target T1, CD39 expressed by Ramos human lymphoma cells (Homo sapiens, UniProt P49961).
T1 construct: host or cells: Ramos human lymphoma cells
T1 sequence (P49961 1-510): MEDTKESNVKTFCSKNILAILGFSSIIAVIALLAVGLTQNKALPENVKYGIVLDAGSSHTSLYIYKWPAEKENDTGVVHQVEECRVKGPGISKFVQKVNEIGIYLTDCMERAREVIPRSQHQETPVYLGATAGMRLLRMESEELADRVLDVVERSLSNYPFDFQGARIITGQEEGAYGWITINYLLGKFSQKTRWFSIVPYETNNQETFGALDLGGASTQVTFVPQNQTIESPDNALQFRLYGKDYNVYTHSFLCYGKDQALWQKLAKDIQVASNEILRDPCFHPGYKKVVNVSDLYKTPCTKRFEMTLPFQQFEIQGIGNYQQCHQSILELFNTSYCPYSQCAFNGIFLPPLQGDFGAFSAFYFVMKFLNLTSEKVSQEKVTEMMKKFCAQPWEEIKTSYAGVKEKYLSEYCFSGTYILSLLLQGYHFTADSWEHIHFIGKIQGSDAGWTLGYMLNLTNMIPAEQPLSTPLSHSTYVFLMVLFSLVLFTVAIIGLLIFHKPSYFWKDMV
As to the kind of experiment: Inhibition of cellular CD39 ATPase activity in Ramos cells. The format is cell-based. On the procedure: (§1) The inhibition of the CD39 enzymatic activity in CD39-expressing cells by antibodies was evaluated using Cell Titer Glo™ (Promega, reference G7571) that allows assessment of ATP hydrolysis through use of a reagent that generates a luminescent signal proportional to the amount of ATP present. The assay was thus designed to permit assessment of the inhibition of ATP hydrolyzed by CD39 in the cell culture supernatant. Briefly, 5×10^4 Ramos human lymphoma cells, 5×10^3 human CD39-, cynomolgus CD39—and mouse CD39-expressing CHO cells, were incubated 1 hour at 37° C. with anti-CD39 antibodies from 30 μg/ml to 5×10^−4 μg/ml. Cells were then incubated with 20 μM ATP for 1 additional hour at 37° C. Plates were centrifuged for 2 min at 400 g and 50 μl cell supernatant are transferred in a luminescence microplate (white wells). 50 μl CellTiter-Glo® Reagent (CTG) was added to the supernatant and emitted light was quantified after a 5 min incubation in the dark using a Enspire™ luminometer. Anti-CD39 antibody efficacy was determined by comparing emitted light in presence of antibody with ATP alone (maximal light emission) and ATP together with cells (minimal light emission).

A further assay addresses T2, human CD39 (CHO-huCD39) (Homo sapiens, UniProt P49961).
T2 construct: expressed in transfected cells; host or cells: CHO cells
T2 sequence (P49961 1-510): T1 sequence (P49961 1-510)
The assay can be described thus: Inhibition of cellular CD39 ATPase activity in CHO-huCD39 cells. The format is cell-based. On the procedure: as §1

In assay [2] the target is T3, soluble recombinant human CD39 protein (Homo sapiens, UniProt P49961).
T3 construct: made in house; host or cells: CHO cells
T3 sequence (P49961 with tags, fused parts or gaps): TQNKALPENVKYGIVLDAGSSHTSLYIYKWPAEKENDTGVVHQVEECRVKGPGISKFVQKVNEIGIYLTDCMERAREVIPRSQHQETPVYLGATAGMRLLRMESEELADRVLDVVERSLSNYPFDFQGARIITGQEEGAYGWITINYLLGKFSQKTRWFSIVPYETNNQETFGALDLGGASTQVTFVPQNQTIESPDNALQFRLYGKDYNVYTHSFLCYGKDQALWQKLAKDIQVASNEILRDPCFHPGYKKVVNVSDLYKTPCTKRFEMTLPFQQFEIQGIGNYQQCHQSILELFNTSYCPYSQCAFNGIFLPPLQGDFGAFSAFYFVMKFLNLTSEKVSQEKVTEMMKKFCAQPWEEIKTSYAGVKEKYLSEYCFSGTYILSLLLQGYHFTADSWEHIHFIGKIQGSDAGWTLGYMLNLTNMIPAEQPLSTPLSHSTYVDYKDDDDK
As to the kind of experiment: Inhibition of the enzymatic (ATPase) activity of soluble CD39, Cell Titer Glo. The format is biochemical. How it is done:
The ability of an antibody to inhibit soluble recombinant human CD39 protein can be tested by detecting ATP after incubating test antibody with soluble CD39 protein (e.g., the CD39 protein having the amino acid sequence of SEQ ID NO: 5, as produced in Example 1, optionally further comprising a purification tag or other functional or non-functional non-CD39-derived amino acid sequence). See, e.g., Example 1. Briefly, ATP can be quantified using the Cell Titer Glo™ (Promega), in an assay in which dose ranges of test antibody are incubated with soluble recombinant human CD39 protein described in Example 1, for 1 hour at 37° C. 20 μM ATP are added to the plates for 30 additional minutes at 37° C. before addition of CTG reagent. Emitted light is quantified using an Enspire™ luminometer after a short incubation period of 5 min in the dark.
The inhibition by antibodies of the enzymatic activity of soluble CD39 protein produced was evaluated using Cell Titer Glo™ (Promega, reference G7571) that allows assessment of ATP hydrolysis through use of a reagent that generates a luminescent signal proportional to the amount of ATP present. In this way, inhibition of the soluble-CD39-mediated ATP hydrolysis can be assessed. Briefly, dose ranges of anti-CD39 antibodies from 100 μg/ml to 6×10^−3 μg/ml were incubated with 400 ng/ml of soluble recombinant human CD39 protein having the amino acid sequence described in the Methods section (SEQ ID NO: 54), for 1h at 37° C. 20 μM ATP was added to the plates for 30 additional minutes at 37° C. before addition of CTG (Cell Titer Glo) reagent. Emitted light was quantified using an Enspire™ luminometer after a short incubation period of 5 min in the dark. Anti-CD39 antibody efficacy was determined by comparing emitted light in presence of antibody with ATP alone (maximal light emission) and ATP together with soluble CD39 protein (minimal light emission).
(In general: In ATP-based viability assays light output follows the ATP content of the culture.)

Entries after “also recorded” stand apart in the source; their conditions may differ.

B1: I-394: anti-CD39 antibody, VH SEQ ID NO: 6, VL SEQ ID NO: 7; heavy/light chains SEQ ID NOS: 52 and 53 (antibody)
heavy: EVQLQQSGPELVKPGASVKMSCKASGYTFTDYNMHWVKQSHGRTLEWIGYIVPLNGGSTFNQKFKGRATLTVNTSSRTAYMELRSLTSEDSAAYYCARGGTRFAYWGQGTLVTVSAASTKGPSVFPLAPSSKSTSGGTAALGCLVKDYFPEPVTVSWNSGALTSGVHTFPAVLQSSGLYSLSSVVTVPSSSLGTQTYICNVNHKPSNTKVDKRVEPKSCDKTHTCPPCPAPEAEGAPSVFLFPPKPKDTLMISRTPEVTCVVVDVSHEDPEVKFNWYVDGVEVHNAKTKPREEQYNSTYRVVSVLTVLHQDWLNGKEYKCKVSNKALPSSIEKTISKAKGQPREPQVYTLPPSREEMTKNQVSLTCLVKGFYPSDIAVEWESNGQPENNYKTTPPVLDSDGSFFLYSKLTVDKSRWQQGNVFSCSVMHEALHNHYTQKSLSLSPGK
light: DIVLTQSPASLAVSLGQRATISCRASESVDNFGVSFMYWFQQKPGQPPNLLIYGASNQGSGVPARFRGSGSGTDFSLNIHPMEADDTAMYFCQQTKEVPYTFGGGTKLEIKRTVAAPSVFIFPPSDEQLKSGTASVVCLLNNFYPREAKVQWKVDNALQSGNSQESVTEQDSKDSTYSLSSTLTLSKADYEKHKVYACEVTHQGLSSPVTKSFNRGEC
modifications: Chimeric homo sapiens mus musculus
As for B1, the “potentiation of anti-CD73 antibodies in restoring CD4 T cell proliferation” value with CD4 T cells (added ATP 200 μM, anti-CD39 at 0.01, 0.1, 1 μg/ml) is recorded as “strongly potentiation”. Also, in the assay on CD4 T cells (anti-CD39 antibody at 0.01 μg/ml), the “increase in potency of anti-CD73 antibodies” value is “approximately 1 log”. Also, the “increase in potency of anti-CD73 antibodies” value in the assay on CD4 T cells (anti-CD39 antibody at 0.1 μg/ml) is “approximately 4 log”. For the same molecule, the “enhancement of CD4 T cell proliferation, alone without anti-CD73” value with CD4 T cells (concentrations of 0.1 μg/ml and 1 μg/ml, added ATP) is given as “remarkable enhancement”. For the same molecule, in assay [1], the “blocking CD39 enzymatic activity in tumor (Ramos) cells” value is recorded as “highly potent” and the “potency in Ramos cells compared to all other antibodies tested” value is recorded as “greater potency”. In addition, the “maximum inhibition achieved, cellular CD39” value in assay [1] (Ramos cells) worked out at 81.6%. In addition, in the assay with human CD39 (CHO-huCD39), the “blocking CD39 enzymatic activity in cells expressing human CD39” value is “blocks; also recorded: highly potent”. Besides, the “maximum inhibition achieved, soluble CD39 protein” value in assay [2] worked out at 74.9%. Besides, the “inhibition of the enzymatic (ATPase) activity of soluble CD39 protein” value in assay [2] (400 ng/ml soluble CD39, 20 μM ATP) is reported as “strong inhibition; also recorded: inhibits; also recorded: highly potent”. Moreover, the “inhibition of ATPase activity of soluble CD39 when antibody is spiked into negative hybridoma supernatants” value in assay [2] (added to hybridoma supernatant) is on record as “did not restore”. Moreover, the “inhibition of ATPase activity of soluble CD39 after purification from the negative supernatant” value in assay [2] (purified with Protein A coated beads) is on record as “again able to inhibit”.
